Tests used:
[1] = molecular target: T1, CEACAM5 (CD66e) on tumour cells (human, UniProt P06731 35-685, glycosylated (natural, as on tumour cells)); assay: flow cytometry on KATO3 cells, anti-human IgG Fc-APC
T1 construct: whole, on cells; One molecule for CEACAM5 on all three cell lines; the cell line is named under assay; also called natural CEACAM5 antigen; Lovo cells
T1 sequence (looked up): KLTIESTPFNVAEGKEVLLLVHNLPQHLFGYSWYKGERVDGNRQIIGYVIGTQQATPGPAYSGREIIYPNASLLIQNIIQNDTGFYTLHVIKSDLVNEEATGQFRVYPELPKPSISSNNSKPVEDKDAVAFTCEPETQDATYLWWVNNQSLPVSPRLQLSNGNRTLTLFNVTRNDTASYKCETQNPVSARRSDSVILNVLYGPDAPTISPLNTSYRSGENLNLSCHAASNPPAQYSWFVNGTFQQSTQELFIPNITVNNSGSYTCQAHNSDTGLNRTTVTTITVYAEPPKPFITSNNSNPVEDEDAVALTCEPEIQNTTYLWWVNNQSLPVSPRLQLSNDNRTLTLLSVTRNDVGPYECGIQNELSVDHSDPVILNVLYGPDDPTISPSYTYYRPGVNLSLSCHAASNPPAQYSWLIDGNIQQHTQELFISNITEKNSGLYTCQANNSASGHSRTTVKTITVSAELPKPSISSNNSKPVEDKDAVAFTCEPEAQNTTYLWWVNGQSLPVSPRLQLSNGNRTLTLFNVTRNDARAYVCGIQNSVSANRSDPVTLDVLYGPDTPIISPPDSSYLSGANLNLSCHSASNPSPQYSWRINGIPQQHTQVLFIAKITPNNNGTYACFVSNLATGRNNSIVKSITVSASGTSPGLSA
Procedure: KATO3 cells (high expression of CEACAM5) were cultured in RPMI1640 medium containing 10% FBS. After the cells were digested with TrypLE trypsin, they were centrifuged and resuspended in DPBS solution containing 2% BSA (FACS buffer, 4° C.), and added to a U-bottom 96-well plate, 5×10⁵/100 μl/well, the antibody diluted in concentration gradient was added, incubated at 4° C. for 1 hour, the supernatant was discarded after centrifugation; 100 μl of solution containing anti-human IgG Fc-APC secondary antibody was added to each well and incubated at 4° C. for 1 hour, then washing was performed with FACS buffer once, resuspending was performed in 200 μl of FACS buffer, and the fluorescence signal value was read on BD C6 plus.

[2] = molecular target: T2, recombinant CEACAM5 antigen (Sinobiological, 11077-H08H) (UniProt P06731 35-685); assay: ELISA, coated recombinant CEACAM5-His 1 µg/ml, anti-human IgG Fc-HRP
T2 construct: Bought protein; also called CEACAM5-His recombinant protein; CEACAM5-His antigen; not shown: His tag
T2 sequence (looked up): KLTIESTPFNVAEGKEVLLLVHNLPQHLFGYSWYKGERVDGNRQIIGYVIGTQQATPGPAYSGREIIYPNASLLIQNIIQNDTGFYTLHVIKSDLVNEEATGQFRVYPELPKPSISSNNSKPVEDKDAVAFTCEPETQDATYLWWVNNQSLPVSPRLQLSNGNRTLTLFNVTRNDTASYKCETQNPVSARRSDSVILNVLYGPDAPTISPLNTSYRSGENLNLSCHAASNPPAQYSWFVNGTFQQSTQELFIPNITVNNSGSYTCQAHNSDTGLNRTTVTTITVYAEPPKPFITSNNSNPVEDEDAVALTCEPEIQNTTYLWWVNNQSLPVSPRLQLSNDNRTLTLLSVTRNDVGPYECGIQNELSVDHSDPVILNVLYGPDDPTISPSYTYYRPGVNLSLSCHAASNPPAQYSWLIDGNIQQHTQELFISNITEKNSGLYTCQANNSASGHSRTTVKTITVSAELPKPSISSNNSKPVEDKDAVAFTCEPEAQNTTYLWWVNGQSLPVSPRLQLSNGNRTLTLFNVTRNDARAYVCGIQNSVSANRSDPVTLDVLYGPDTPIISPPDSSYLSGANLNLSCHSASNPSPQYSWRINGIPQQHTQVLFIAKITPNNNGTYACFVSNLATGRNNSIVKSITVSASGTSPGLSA
Procedure: Recombinant CEACAM5 antigen (Sinobiological, 11077-H08H) was diluted to 1 μg/ml with DPB S solution, add into a 96-well plate, 100 μl per well, and coated overnight at 2-8° C.; the coating solution was discarded, washing was performed twice with PBS solution, PBS solution containing 2% BSA was added, and blocking was performed at room temperature for 2 hours; the blocking solution was discarded, the humanized antibody diluted in concentration gradient was added, and incubated at 37° C. for 1 hour; the antibody solution was discarded, and washing was performed for 4 times with PBS solution containing 0.05% Tween 20 (PBST solution); the anti-human IgG Fc-HRP secondary antibody was added and incubated at 37° C. for 30 minutes; washing was performed for 4 times with PBST solution, TMB chromogenic substrate was added, and color development was carried out for 5-10 minutes, then the reaction was terminated by adding equal volume of 1M H₂SO₄; the absorbance at 450 nm was read on a microplate reader.

[3] = molecular target: T1, CEACAM5 (CD66e) on tumour cells; assay: competition by flow cytometry on KATO3 cells; competitor mouse M19 (m2F4) at 1 µg/ml, detected with anti-mouse IgG Fc-APC
Procedure: KATO3 cells (high expression of CEACAM5) were cultured in RPMI1640 medium containing 10% FBS. After the cells were digested with TrypLE trypsin, they were centrifuged and resuspended in DPB S solution containing 2% BSA (FACS buffer, 4° C.), and added a U-bottom 96-well plate, 5×10⁵/100 μl/well, the mouse monoclonal antibody M19 antibody (m2F4) was added to 1 μg/ml and the humanized antibody diluted in gradient (50 μg/ml, 3-fold dilution) was added, then incubated at 4° C. for 1 hour, the supernatant was discarded after centrifugation; 100 μl of solution containing anti-mouse IgG Fc-APC secondary antibody was added to each well and incubated at 4° C. for 1 hour, washing was performed once with FACS buffer, resuspending was performed in 200 μl FACS buffer, and the fluorescence signal value was read on BD C6 plus.

[4] = molecular target: T1, CEACAM5 (CD66e) on tumour cells; assay: hybridoma supernatant on Lovo cells, anti-mouse Fc-FITC, Celigo imaging
Procedure: Lovo cells and Lovo CEA KO cells were inoculated in 96-well plates, 10⁴ per well, and cultured overnight, 1-10 μl of hybridoma supernatant was added to Lovo/Lovo CEA KO cell culture plates, incubated for 1 hour, the supernatant was discarded, anti-mouse Fc-FITC fluorescent secondary antibody was added, incubated for 1 hour, the supernatant was discarded, DPBS solution containing 2% BSA was added, the fluorescent signals and FITC staining areas were read and analyzed in Celigo.

B1: Humanized antibody hAb-013 (antibody, V domains shown)
VH: EVQLVESGGGLVQPGGSLRLSCAASGFTFTDYYMDWVRQAPGKALEWVGFTRNKVNGDTTEYAASVKGRFTISRDDSKNSLYLQMNSLKTEDTAVYYCARDKGIAYYFDYWGQGTLVTVSS
VL: QIVLTQSPATLSASPGERATLSCRASSSVSYIHWYQQKPGQSPRPLIYGTSNLASGVPARFSGSGSGTDFTLTISSLEPEDAAVYYCQQWSSNLSTFGGGTKVEIK
notes: also called hM19-11
EC50 [1]: 12.7 mg/L
Emax [1]: 49.3%
EC50 [2]: 6.1 mg/L
Emax Inhibition, % [3]: 89%
IC50 [3]: 5.2 mg/L

B2: Humanized antibody hAb-005 (antibody, V domains shown)
VH: EVQLVESGGGLVQPGGSLRLSCAASGFTFTDYTMSWVRQAPGKALEWVGFIRNKVNGDTTEYSDSVEGRFTISRDNSKNTLYLQMNSLRAEDTAVYYCARDKGIAYYFDYWGQGTLVTVSS
VL: DIQLTQSPSSLSASVGDRVTITCRASSSVSYIHWYQQKPGKSPKPWIYGTSNLASGVPSRFSGSGSGTDYTLTISSLQPEDAATYYCQQWSSNLSTFGQGTKVEIK
notes: also called hM19-3
EC50 [1]: 3250 mg/L
Emax [1]: 9.1%
binding result [2]: no binding

B3: Humanized antibody hAb-006 (antibody, V domains shown)
VH: EVQLVESGGGLVQPGGSLRLSCAASGFTFTDYYMNWVRQAPGKGLEWLGFIRNKVNGDTTEYSASVKGRFTISRDISKNSLYLQMNSLKTEDTAVYYCARDKGIAYYFDYWGQGTLVTVSS
VL: DIVLSQSPGTLSLSPGERATLSCRASSSVSYIHWYQQKPGQAPRPWIHGTSNLASGIPDRFSGSGSGTDYTLTISRLEPEDFAVYYCQQWSSNLSTFGGGTKVEIK
notes: also called hM19-4
EC50 [1]: 5.7 mg/L
Emax [1]: 118%
EC50 [2]: 3.11 mg/L
Emax Inhibition, % [3]: 47.2%
IC50 [3]: 6.9 mg/L

B4: Humanized antibody hAb-003 (antibody, V domains shown)
VH: EVQLVESGGGLVQPGGSLRLSCAASGFTFTDYFMNWVRQAPGKALEWVGQMRNKVNGDTTEYAESVEGRFTISRDDSKNSLYLQMNSLKTEDTAVYYCARDKGIAYYFDYWGQGTLVTVSS
VL: DIQMTQSPSSLSASVGDRVTITCRASSSVSYIHWYQQKPGKSPKPLIYGTSNLASGVPSRFSGSGSGTDFTLTISSLQPEDAATYYCQQWSSNLSTFGQGTKLEIK
notes: also called hM19-1
EC50 [1]: 2.7 mg/L
Emax [1]: 85.1%
EC50 [2]: 3.69 mg/L
Emax Inhibition, % [3]: 51.3%
IC50 [3]: 3.9 mg/L

B5: Humanized antibody hAb-016 (antibody, V domains shown)
VH: EVQLVESGGGLVQPGGSLRLSCAASGFTFTDYYMDWVRQAPGKALEWVGFTRNKVNGDTTEYAASVKGRFTISRDDSKNSLYLQMNSLKTEDTAVYYCARDKGIAYYFDYWGQGTLVTVSS
VL: EIVLTQSPGTLSASPGERATLSCRASSSVSYIHWYQQKPGQSPRPLIYGTSNLASGVPDRFSGSGSGTDFTLTISRLEPEDAAVYYCQQWSSNLSTFGGGTKVEIK
notes: also called hM19-14
EC50 [1]: 3.2 mg/L
Emax [1]: 48.4%
EC50 [2]: 4.32 mg/L
Emax Inhibition, % [3]: 73.2%
IC50 [3]: 6.4 mg/L

B6: Humanized antibody hAb-017 (antibody, V domains shown)
VH: EVQLVESGGGLVQPGGSLRLSCAASGFTFTDYYMDWVRQAPGKALEWVGFTRNKVNGDTTEYAASVKGRFTISRDDSKNSLYLQMNSLKTEDTAVYYCARDKGIAYYFDYWGQGTLVTVSS
VL: EIVLTQSPATLSASPGERATLSCRASSSVSYIHWYQQKPGQSPRPLIYGASNLASGVPARFSGSGSGTDFTLTISSLEPEDAAVYYCQQWSSNLSTFGGGTKVEIK
notes: also called hM19-15
EC50 [1]: 2.2 mg/L
Emax [1]: 57.7%
EC50 [2]: 7.05 mg/L
Emax Inhibition, % [3]: 73.9%
IC50 [3]: 4.5 mg/L

B7: Humanized antibody hAb-009 (antibody, V domains shown)
VH: EVQLVESGGGLVQPGGSLRLSCAASGFTFTDYYMNWVRQAPGKALEWLGFIRNKVNGDTTEYAASVKGRFTISRDDSKNSLYLQMNSLKTEDTAVYYCARDKGIAYYFDYWGQGTLVTVSS
VL: EIVLTQSPATLSASPGERATLSCRASQSVSYIHWYQQKPGQSPRPWIHGTSNLATGVPARFSGSGSGTDFTLTISSLEPEDAAVYYCQQWSSNLSTFGGGTKVEIK
notes: also called hM19-7
EC50 [1]: 1.8 mg/L
Emax [1]: 109%
EC50 [2]: 2.87 mg/L
Emax Inhibition, % [3]: 62.7%
IC50 [3]: 2.7 mg/L

B8: Humanized antibody hAb-010 (antibody, V domains shown)
VH: EVQLVESGGGLVQPGGSLRLSCAASGFTFTDYYMDWVRQAPGKALEWVGFIRNKVNGDTTEYAASVKGRFTISRDDSKNSLYLQMNSLKTEDTAVYYCARDKGIAYYFDYWGQGTLVTVSS
VL: EIVLTQSPATLSASPGERATLSCRASSSVSYIHWYQQKPGQSPRPLIYGTSNRATGVPARFSGSGSGTDFTLTISSLEPEDAAVYYCQQWSSNLSTFGGGTKVEIK
notes: also called hM19-8
EC50 [1]: 1.3 mg/L
Emax [1]: 60.6%
EC50 [2]: 3.56 mg/L
Emax Inhibition, % [3]: 75%
IC50 [3]: 2.3 mg/L

B9: M7 (11B6), mouse hybridoma antibody (antibody, V domains shown)
VH: EVQLQQSGAELVRPGASVKLSCTVSGFNIKDDYMHWVKQRPEQGLEWIGWIDPENGDTEYASKFQGKATITADTSSNSAYLQLSSLTSEDTAVYYCTFIYYVNPHYYAMDYWGQGTSVTVSS
VL: QIVLTQSPAIMSASPGEKVTITCSATSSVSYMHWFQQKPGTSPKLWIYSTSNLASGVPARFSGSGSGTSYSLTISRVEAEDAATYYCQQRSSYPLTFGAGTKLELK
notes: Hybridoma supernatant, detected with anti-mouse Fc
Lovo binding percentage [4]: 54.6%

B10: M17 (6A8), mouse hybridoma antibody (antibody, V domains shown)
VH: EVQLQQSGAELVRPGASVKLSCTASGFNIKDDYMHWVKQRPEQGLEWIGWIDPENGDTEYASKFQGKATITADTSSNTAYLLLSSLTSEDTAVYYCTTIYYYGSRGAMDYWGQGTSVTVSS
VL: QIVLTQSPAIMSASPGEKVTITCSASSSVSYMHWFQQKPGTSPKLWIYTTSTLASGVPARFSGSGSGTSYFLTISRMEAEDAATYYCHQRSSYPLTFGAGTKLELK
notes: as for B9
Lovo binding percentage [4]: 34.7%

B11: M18 (7G1), mouse hybridoma antibody (antibody, V domains shown)
VH: QIQLVQSGPELKKPGETVKISCKASGYTFTTYGMTWVKQAPGKGLKWMGWINTYSGVPTYIDDFKGRFAFSLETSASTAYLQINNLKNEDTATYFCGRKDLLGFMDYWGQGTSVTVSS
VL: DIQMTQSPSSLSASLGGKVTITCKTSQDINKFMAWYQHKPGKGPRLLIRYTSTLQPGIPSRFSGSGSGRDYSFSIRNLEPEDIATYYCLQYDDLTWTFGGGTKLEI
notes: as for B9
Lovo binding percentage [4]: 89.5%
